Measurements taken from the supplement of paper PMC11246515.
± gives the standard deviation of the averaged measurements.

Test: total protein half-life in vivo (active degradation + dilution); higher = more stable protein
[1] = E. coli NCM3722 delta-clpP delta-lon delta-hslV, growth: N-lim chemostat, doubling time 6 h
[2] = E. coli NCM3722 delta-hslV, growth: N-lim chemostat, doubling time 6 h
[3] = E. coli NCM3722 delta-lon, growth: N-lim chemostat, doubling time 6 h
[4] = E. coli NCM3722 delta-smpB, growth: N-lim chemostat, doubling time 6 h
[5] = wild type E. coli NCM3722, growth: C-lim chemostat, doubling time 3 h
[6] = wild type E. coli NCM3722, growth: C-lim chemostat, doubling time 6 h
[7] = wild type E. coli NCM3722, growth: N-lim chemostat, doubling time 6 h
[8] = wild type E. coli NCM3722, growth: N-lim chemostat, doubling time 12 h
[9] = wild type E. coli NCM3722, growth: P-lim chemostat, doubling time 12 h
[10] = E. coli NCM3722 delta-clpP, growth: N-lim chemostat, doubling time 6 h
[11] = wild type E. coli NCM3722, growth: C-lim chemostat, doubling time 12 h
[12] = wild type E. coli NCM3722, growth: P-lim chemostat, doubling time 6 h

Row | Sequence | total protein half-life in vivo [1] [h] | total protein half-life in vivo [2] [h] | total protein half-life in vivo [3] [h] | total protein half-life in vivo [4] [h] | total protein half-life in vivo [5] [h] | total protein half-life in vivo [6] [h] | total protein half-life in vivo [7] [h] | total protein half-life in vivo [8] [h] | total protein half-life in vivo [9] [h] | total protein half-life in vivo [10] [h] | total protein half-life in vivo [11] [h] | total protein half-life in vivo [12] [h]
1 | MKKKRPVLQDVADRVGVTKMTVSRFLRNPEQVSVALRGKIAAALDELGYIPNRAPDILSNATSRAIGVLLPSLTNQVFAEVLRGIESVTDAHGYQTMLAHYGYKPEMEQERLESMLSWNIDGLILTERTHTPRTLKMIEVAGIPVVELMDSKSPCLDIAVGFDNFEAARQMTTAIIARGHRHIAYLGARLDERTIIKQKGYEQAMLDAGLVPYSVMVEQSSSYSSGIELIRQARREYPQLDGVFCTNDDLAVGAAFECQRLGLKVPDDMAIAGFHGHDIGQVMEPRLASVLTPRERMGSIGAERLLARIRGESVTPKMLDLGFTLSPGGSI [P0ACP5] | 6.42 ± 0.18 | 5.79 ± 0.47 | 5.99 ± 1 | 5.75 ± 0.31 | > 4 | 6.6 ± 0.52 | 6.14 ± 0.46 | 14.4 ± 1.9 | > 16 |  |  | 
2 | MKKKTTLSEEDQALFRQLMAGTRKIKQDTIVHRPQRKKISEVPVKRLIQEQADASHYFSDEFQPLLNTEGPVKYVRPDVSHFEAKKLRRGDYSPELFLDLHGLTQLQAKQELGALIAACRREHVFCACVMHGHGKHILKQQTPLWLAQHPHVMAFHQAPKEYGGDAALLVLIEVEEWLPPELP [P0A8B2] | 3.99 ± 0.33 | 3.03 ± 0.56 |  | 3.68 ± 0.36 | 2.46 ± 0.48 | 3.84 ± 0.16 | 2.99 ± 0.086 | 3.87 ± 0.36 | 6 ± 0.6 | 2.898 ± 0.019 | 5.34 | 3.06 ± 0.1
3 | MKKLAIAGALLLLAGCAEVENYNNVVKTPAPDWLAGYWQTKGPQRALVSPEAIGSLIVTKEGDTLDCRQWQRVIAVPGKLTLMSDDLTNVTVKRELYEVERDGNTIEYDGMTMERVDRPTAECAAALDKAPLPTPLP | 7.04 ± 1.3 | 6.36 ± 0.14 | 7.26 ± 0.97 | 6.12 ± 0.1 | 3 ± 0.23 | 6.16 ± 0.61 | 4.4 ± 3.5 | 12.5 ± 0.86 | 12.4 ± 0.42 | 6.08 ± 0.62 |  | 6.19 ± 0.15
4 | MKKLFIQFYLLLFVCFLVMSLLVGLVYKFTAERAGKQSLDDLMNSSLYLMRSELREIPPHDWGKTLKEMDLNLSFDLRVEPLSKYHLDDISMHRLRGGEIVALDDQYTFLQRIPRSHYVLAVGPVPYLYYLHQMRLLDIALIAFIAISLAFPVFIWMRPHWQDMLKLEAAAQRFGDGHLNERIHFDEGSSFERLGVAFNQMADNINALIASKKQLIDGIAHELRTPLVRLRYRLEMSDNLSAAESQALNRDISQLEALIEELLTYARLDRPQNELHLSEPDLPLWLSTHLADIQAVTPDKTVRIKTLVQGHYAALDMRLMERVLDNLLNNALRYCHSTVETSLLLSGNRATLIVEDDGPGIAPENREHIFEPFVRLDPSRDRSTGGCGLGLAIVHSIALAMGGTVNCDTSELGGARFSFSWPLWHNIPQFTSA |  | 6.14 ± 0.51 |  | 6.03 ± 0.18 | 2.755 ± 0.017 | 6.26 | 6.3 | 10.1 ± 2.2 | 11.4 ± 0.61 |  | 12.5 ± 4.9 | 5.97 ± 0.2
5 | MKKLILIAIMASGLVACAQSTAPQEDSRLKEAYSACINTAQGSPEKIEACQSVLNVLKKEKQHQQFADQESVRVLDYQQCLRATQTGNDQAVKADCDKVWQEIRSNNK |  |  |  | 5.85 |  |  |  | > 16 |  |  | 9.68 ± 2.6 | 
6 | MKKLLPILIGLSLSGFSSLSQAENLMQVYQQARLSNPELRKSAADRDAAFEKINEARSPLLPQLGLGADYTYSNGYRDANGINSNATSASLQLTQSIFDMSKWRALTLQEKAAGIQDVTYQTDQQTLILNTATAYFNVLNAIDVLSYTQAQKEAIYRQLDQTTQRFNVGLVAITDVQNARAQYDTVLANEVTARNNLDNAVEQLRQITGNYYPELAALNVENFKTDKPQPVNALLKEAEKRNLSLLQARLSQDLAREQIRQAQDGHLPTLDLTASTGISDTSYSGSKTRGAAGTQYDDSNMGQNKVGLSFSLPIYQGGMVNSQVKQAQYNFVGASEQLESAHRSVVQTVRSSFNNINASISSINAYKQAVVSAQSSLDAMEAGYSVGTRTIVDVLDATTTLYNAKQELANARYNYLINQLNIKSALGTLNEQDLLALNNALSKPVSTNPENVAPQTPEQNAIADGYAPDSPAPVVQQTSARTTTSNGHNPFRN | 6.4 ± 0.68 | 7.27 ± 0.62 | 6.96 ± 0.25 | 6.09 ± 0.28 | 3.15 ± 0.091 | 6.46 ± 0.065 | 5.95 ± 0.79 | 13.3 ± 0.99 | 10.7 ± 0.21 |  | 12.5 ± 0.56 | 5.09 ± 0.13
7 | MKKLQIAVGIIRNENNEIFITRRAADAHMANKLEFPGGKIEMGETPEQAVVRELQEEVGITPQHFSLFEKLEYEFPDRHITLWFWLVERWEGEPWGKEGQPGEWMSLVGLNADDFPPANEPVIAKLKRL | 4.64 ± 0.53 | 4.58 ± 0.57 | 5.1 | 5.16 ± 1.3 | 3.35 ± 0.21 | 5.04 ± 0.078 | 4.16 ± 0.41 | 6.87 ± 0.51 | 11 ± 1.5 |  | 9.03 ± 0.32 | 4.48 ± 0.6
8 | MKKLRIGVVGLGGIAQKAWLPVLAAASDWTLQGAWSPTRAKALPICESWRIPYADSLSSLAASCDAVFVHSSTASHFDVVSTLLNAGVHVCVDKPLAENLRDAERLVELAARKKLTLMVGFNRRFAPLYGELKTQLATAASLRMDKHRSNSVGPHDLYFTLLDDYLHVVDTALWLSGGKASLDGGTLLTNDAGEMLFAEHHFSAGPLQITTCMHRRAGSQRETVQAVTDGALIDITDMREWREERGQGVVHKPIPGWQSTLEQRGFVGCARHFIECVQNQTVPQTAGEQAVLAQRIVDKIWRDAMSE | 5.47 ± 0.24 | 5.7 ± 0.25 | 6.04 ± 0.96 | 4.86 ± 0.11 | 3.12 ± 0.51 | 5.88 ± 0.12 | 4.96 ± 0.26 | 9.402 ± 0.04 | 12 ± 0.19 | 5.38 ± 1.1 | 11 ± 0.34 | 6.2 ± 0.17
